The record followed here is publication doi:10.1101/765990 (bioRxiv, 2019).

For the assay, the target named is T1, Sed5p Habc domain (amino acids 1-210) (budding yeast, UniProt Q01590 1-210).
T1 sequence: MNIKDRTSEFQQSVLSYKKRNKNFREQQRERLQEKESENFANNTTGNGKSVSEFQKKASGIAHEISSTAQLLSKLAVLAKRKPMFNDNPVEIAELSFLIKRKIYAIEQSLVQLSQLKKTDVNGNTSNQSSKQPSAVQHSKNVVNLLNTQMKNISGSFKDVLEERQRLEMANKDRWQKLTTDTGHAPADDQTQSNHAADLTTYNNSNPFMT
The experiment in a line: native gel or EMSA. Background: Mobility shift assays separate free from complexed probe on a gel.

B1: Sed5p SNARE-motif (amino acids 211-320), wild type (domain or fragment)
chain: SLLDESSEKNNNSSNQGELSFPQNDSQLMLMEEGQLSNNVYLQERNRAVETIESTIQEVGNLFQQLASMVQEQGEVIQRIDANVDDIDLNISGAQRELLKYFDRIKSNRW
As to B1, the binding result is given as “binds”.
